# From paper PMC3546728, “Bacterial Over-Expression and Purification of the 3′phosphoadenosine 5′phosphosulfate (PAPS) Reductase Domain of Human FAD Synthase: Functional Characterization and Homology Modeling” (International Journal of Molecular Sciences, 2012)
# Columns and labels:
# Test in all cases: purified protein
# Type in all cases: biochemical, Homo sapiens
# [1] = system: T1, Cc1cc2nc3c(=O)[nH]c(=O)nc-3n(C[C@H](O)[C@H](O)[C@H](O)COP(=O)(O)O)c2cc1C; settings: 100 μM ATP, 5 mM MgCl2, 50 mM Tris/HCl pH 7.5, 37 °C
# T1 construct: C-terminal PAPS reductase domain, residues 329-587; vector pH6EX3; E. coli Rosetta (DE3); theoretical 31499 Da, ~28 kDa on SDS-PAGE
# [2] = system: T2, O=P(O)(O)OP(=O)(O)O; settings: reverse reaction, 0.5 μM FAD, 5 mM MgCl2, 50 mM Tris/HCl pH 7.5, 37 °C
# T2 construct: C-terminal PAPS reductase domain, residues 329-587; vector pH6EX3; E. coli Rosetta (DE3); theoretical 31499 Da, ~28 kDa on SDS-PAGE
# [3] = system: T3, Nc1ncnc2c1ncn2[C@@H]1O[C@H](COP(=O)(O)OP(=O)(O)OP(=O)(O)O)[C@@H](O)[C@H]1O; settings: 2 μM FMN, 5 mM MgCl2, 50 mM Tris/HCl pH 7.5, 37 °C
# T3 construct: C-terminal PAPS reductase domain, residues 329-587; vector pH6EX3; E. coli Rosetta (DE3); theoretical 31499 Da, ~28 kDa on SDS-PAGE
# Sequence of 6-His-Δ1-328-hFADS (Homo sapiens) (chain, as listed by the source mutant): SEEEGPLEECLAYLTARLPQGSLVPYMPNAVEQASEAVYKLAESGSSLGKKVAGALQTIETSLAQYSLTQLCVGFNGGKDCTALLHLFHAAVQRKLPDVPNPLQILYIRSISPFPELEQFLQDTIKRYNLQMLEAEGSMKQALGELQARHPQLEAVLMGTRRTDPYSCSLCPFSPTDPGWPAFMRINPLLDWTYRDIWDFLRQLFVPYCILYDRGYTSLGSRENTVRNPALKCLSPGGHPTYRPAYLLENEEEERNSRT
substance,measurement,setting,value
6-His-Δ1-328-hFADS (Homo sapiens),Km,[1],0.24 ± 0.06 µM
same,kcat,[1],0.042 ± 0.001 s⁻¹
same,Km,[2],92.0 ± 0.5 µM
same,kcat,[2],0.0037 ± 0.0009 s⁻¹
same,Km,[3],6.23 ± 1.5 µM
same,kcat,[3],0.042 ± 0.001 s⁻¹
